Reference: patent publication US20100015664A1

Columns and labels:
[1] = target: T1, Fluorescence-labeled synthetic peptide AG FAGP (not fully specified)
T1 chain: AGFAGP

[2] = target: T2, Fluorescence-labeled synthetic peptide G FAGP (not fully specified)
T2 chain: GFAGP

[3] = target: T3, Fluorescence-labeled synthetic peptide GPAG FAG (not fully specified)
T3 chain: GPAGFAG

[4] = target: T4, Fluorescence-labeled synthetic peptide GPAG FA (not fully specified)
T4 chain: GPAGFA

[5] = target: T5, Fluorescence-labeled synthetic peptide GPAG F (not fully specified)
T5 chain: GPAGF

[6] = target: T6, Fluorescence-labeled synthetic peptide PAG FAGP (not fully specified)
T6 chain: PAGFAGP

[7] = target: T7, Fluorescence-labeled synthetic peptide of Pro-Gln-Gly-Ile-Ala-Gly-Gln (not fully specified)
T7 chain: PQGIAGQ

[8] = target: T8, Nma-Gly-Pro-Ala-Gly-Phe-Ala-Gly-Pro-Lys-(DNP)r-NH2 (not fully specified)
T8 chain: GPAGFAGPK

[9] = target: T9, Nma-Gly-Pro-Gln-Gly-Phe-Gln-Gly-Pro-Lys-(DNP)r-NH2 (not fully specified)
T9 chain: GPQGFQGPK

[10] = target: T10, Nma-Thr-Gln-Ser-Leu-Val-Thr-Pro-Lys-(DNP)r-NH2 (not fully specified)
T10 chain: TQSLVTPK

B1: Protease of the present invention, purified from the culture of Aureobacterium sp. MIM-CG-9535-I (FERM P-15326) (protein)
chain: LIVNTVNSIDDKWSDAQASALTYCVSTAFGARHADVVSAMESGAALWEAASSKIDFIYDSSADANCTTRNNAVLFSVEPVQTTQYIARAFFPSTAPRLQNVLIDDSIWTPGSSWTPTNVLGHELGHVLGFRHEHTRPEAGTCFEDDNWRPLTPYDSSSIMHYPQCNGSSADLSMTSVDTDGVVALYGN
Q: With B1 as the protein, how does the “Present or Absent of Specific degradation activity” value (“Present or Absent” for short) [1] read?
A: Absent

Q: What about the “Present or Absent” value [2] of the same protein?
A: Absent

Q: And the “Present or Absent” value [3]?
A: Absent

Q: What about the “Present or Absent” value [4] of the same protein?
A: Absent

Q: And the “Present or Absent” value [5]?
A: Absent

Q: What about the “Present or Absent” value [6] of the same protein?
A: Present

Q: And the “Protease cutting activity (degradation of synthetic substrate)” value (“Protease cutting activity” below) [7]?
A: (X) Does not degrade

Q: What about the “Present or Absent” value [8] of the same protein?
A: Present

Q: And the “Protease cutting activity” value [8]?
A: (◯) Degrades

Q: And the “Protease cutting activity” value [9]?
A: (◯) Degrades

Q: And the “Protease cutting activity” value [10]?
A: (◯) Degrades
